Measured values: patent US20130345135A1 (WISCONSIN ALUMNI RESEARCH FOUNDATION, published 2013)

Target: myosin in murine skinned myocardium (principal isoform alpha-cardiac myosin) (mouse, UniProt Q02566 1-1938)
Assay: cell-based or functional assay

Chain of myosin in murine skinned myocardium (principal isoform alpha-cardiac myosin) (Q02566 whole entry, canonical isoform): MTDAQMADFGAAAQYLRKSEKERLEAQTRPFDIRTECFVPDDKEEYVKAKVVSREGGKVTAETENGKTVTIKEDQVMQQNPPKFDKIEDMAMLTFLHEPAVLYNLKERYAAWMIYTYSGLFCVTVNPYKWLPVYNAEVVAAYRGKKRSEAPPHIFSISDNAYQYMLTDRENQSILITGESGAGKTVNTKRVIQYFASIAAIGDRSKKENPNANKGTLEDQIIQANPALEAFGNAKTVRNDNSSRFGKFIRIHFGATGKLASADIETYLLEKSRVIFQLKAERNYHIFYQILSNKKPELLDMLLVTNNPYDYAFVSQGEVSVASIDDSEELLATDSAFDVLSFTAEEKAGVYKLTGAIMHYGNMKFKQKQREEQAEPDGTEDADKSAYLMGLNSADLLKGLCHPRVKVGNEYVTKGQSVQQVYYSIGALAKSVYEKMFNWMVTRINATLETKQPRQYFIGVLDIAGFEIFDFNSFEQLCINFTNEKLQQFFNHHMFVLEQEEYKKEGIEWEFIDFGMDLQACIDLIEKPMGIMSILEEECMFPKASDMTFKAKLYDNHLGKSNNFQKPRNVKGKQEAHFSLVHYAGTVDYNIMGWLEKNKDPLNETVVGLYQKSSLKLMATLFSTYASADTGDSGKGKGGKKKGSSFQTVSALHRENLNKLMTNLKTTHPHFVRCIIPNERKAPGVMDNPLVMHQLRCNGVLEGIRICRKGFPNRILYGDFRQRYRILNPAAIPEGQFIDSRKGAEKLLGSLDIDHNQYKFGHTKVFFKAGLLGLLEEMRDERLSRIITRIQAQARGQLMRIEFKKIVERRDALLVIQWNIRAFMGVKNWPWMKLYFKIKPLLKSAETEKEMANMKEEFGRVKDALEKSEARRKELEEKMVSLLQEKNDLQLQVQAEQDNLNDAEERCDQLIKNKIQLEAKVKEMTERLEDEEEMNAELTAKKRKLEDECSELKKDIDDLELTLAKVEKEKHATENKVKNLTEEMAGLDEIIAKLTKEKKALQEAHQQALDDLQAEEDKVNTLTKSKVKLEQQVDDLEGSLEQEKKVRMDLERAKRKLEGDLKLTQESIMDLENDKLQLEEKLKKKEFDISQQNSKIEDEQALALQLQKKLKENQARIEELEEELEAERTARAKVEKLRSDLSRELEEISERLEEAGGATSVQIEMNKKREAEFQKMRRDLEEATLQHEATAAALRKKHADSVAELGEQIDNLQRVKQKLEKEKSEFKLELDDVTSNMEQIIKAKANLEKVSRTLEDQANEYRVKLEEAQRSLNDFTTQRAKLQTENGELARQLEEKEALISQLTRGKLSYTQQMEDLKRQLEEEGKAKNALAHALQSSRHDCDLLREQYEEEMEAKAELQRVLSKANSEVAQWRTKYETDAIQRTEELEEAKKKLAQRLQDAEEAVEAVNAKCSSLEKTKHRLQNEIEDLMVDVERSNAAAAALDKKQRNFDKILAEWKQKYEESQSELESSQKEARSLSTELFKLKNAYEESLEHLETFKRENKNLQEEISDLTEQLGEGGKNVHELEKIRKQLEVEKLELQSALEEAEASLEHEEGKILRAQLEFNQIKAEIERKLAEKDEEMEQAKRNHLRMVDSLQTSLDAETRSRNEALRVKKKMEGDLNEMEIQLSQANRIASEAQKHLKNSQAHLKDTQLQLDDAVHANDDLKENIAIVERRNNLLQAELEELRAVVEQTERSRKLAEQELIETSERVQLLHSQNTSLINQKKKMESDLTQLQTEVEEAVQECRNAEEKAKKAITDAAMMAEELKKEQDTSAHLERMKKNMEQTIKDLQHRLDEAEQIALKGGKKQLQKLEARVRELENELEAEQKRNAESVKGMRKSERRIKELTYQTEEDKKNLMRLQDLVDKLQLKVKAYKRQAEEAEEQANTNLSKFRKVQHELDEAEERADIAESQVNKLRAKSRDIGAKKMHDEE

force at intermediate pCa (scaled to force at pCa 4.5), mouse, 50 uM peptide, fold of control: ~2 x control | force at pCa 5.9 (scaled to force at pCa 4.5), mouse, 50 uM peptide, fold of untreated: ~3 x (fold of untreated force)
B1: peptide 302A (peptide)
peptide: FSSLLKKRDAFRRDAKLE
